Measured values reported in patent US20090162366A1.

How the values were obtained:
[1] = biological target: M2 peptide (influenza A virus, A/Hong Kong/1/68 (H3N2)); assay: ELISA on peptide, Ab 10 µg/ml
[2] = biological target: M2LTKGS (influenza A virus, A/Hong Kong/542/97 (H5N1))
[3] = biological target: M2GHTGKS (influenza A virus, A/chicken/HongKong/SF1/03 (H9N2))
[4] = biological target: M2HTGEKS (influenza A virus, A/chicken/California/1002a/00 (H6N2))
[5] = biological target: M2LTGEKS (influenza A virus, A/Hong Kong/1074/99 (H9N2))
[6] = biological target: M2TGE (influenza A virus, A/DK/ST/5048/2001 (H3N8))
[7] = biological target: M2TGEKS (influenza A virus, A/Canada/rv504/2004 (H7N3))
[8] = biological target: M2KTGEKS (influenza A virus, A/Quail/Arkansas/16309-7/94 (H7N3NSA))
[9] = biological target: M2TDGEKS (influenza A virus, A/chicken/Pennsylvania/13552-1/98 (H7N2NSB))
[10] = biological target: M2LTGS (influenza A virus, A/Hong Kong/156/97 (H5N1))
[11] = biological target: M2PHTGS (influenza A virus, A/chicken/HongKong/YU427/03 (H9N2))
[12] = biological target: M2KTGEKS peptide conjugated with BSA (influenza A virus, A/Quail/Arkansas/16309-7/94 (H7N3NSA)); assay: peptide-BSA ELISA
[13] = biological target: M2GHTGKS peptide conjugated with BSA (influenza A virus, A/chicken/HongKong/SF1/03 (H9N2)); assay: peptide-BSA ELISA
[14] = biological target: M2LTGEKS-BSA conjugate (influenza A virus, A/Hong Kong/1074/99 (H9N2)); assay: peptide-BSA ELISA
[15] = biological target: M2TDGEKS peptide conjugated with BSA (influenza A virus, A/chicken/Pennsylvania/13552-1/98 (H7N2NSB)); assay: peptide-BSA ELISA
[16] = biological target: M2HTGEKS peptide conjugated with BSA (influenza A virus, A/chicken/California/1002a/00 (H6N2)); assay: peptide-BSA ELISA
[17] = biological target: M2PHTGS peptide conjugated with BSA (influenza A virus, A/chicken/HongKong/YU427/03 (H9N2)); assay: peptide-BSA ELISA
[18] = biological target: M2LTGS peptide conjugated with BSA (influenza A virus, A/Hong Kong/156/97 (H5N1)); assay: peptide-BSA ELISA
[19] = biological target: M2LTKGS peptide conjugated with BSA (influenza A virus, A/Hong Kong/542/97 (H5N1)); assay: peptide-BSA ELISA
[20] = biological target: M2TGEK-BSA conjugate (influenza A virus, A/Netherlands/33/03 (H7N7)); assay: peptide-BSA ELISA
[21] = biological target: M2TGS-BSA conjugate (influenza A virus, A/chicken/Shanghai/F/98 (H9N2)); assay: peptide-BSA ELISA (++ EC50<10^-9M; + 10^-9M<EC50<10^-8M)
[22] = biological target: M2TGEKS peptide conjugated with BSA (influenza A virus, A/Canada/rv504/2004 (H7N3)); assay: as above
[23] = biological target: M2TES peptide conjugated with BSA (influenza A virus, A/Viet Nam/1203/2004 (H5N1)); assay: as above
[24] = biological target: M2FG peptide conjugated with BSA (influenza A virus, A/X-31 (H3N2)); assay: as above
[25] = biological target: M2EG peptide conjugated with BSA (influenza A virus, A/New York/687/1995 (H3N2)); assay: as above
[26] = biological target: M2DLTGS peptide conjugated with BSA (influenza A virus, A/Hong Kong/485/97 (H5N1)); assay: as above
[27] = biological target: M2KGENS peptide conjugated with BSA (influenza A virus, A/Turkey/VA/158512/02 (H7N2)); assay: as above
[28] = biological target: M2-BSA conjugate (influenza A virus, A/Hong Kong/1/68 (H3N2)); assay: as above
[29] = biological target: M2SG peptide conjugated with BSA (influenza A virus, A/swine/Tennessee/25/77 (H1N1)); assay: as above
[30] = biological target: M2TGE-BSA conjugate (influenza A virus, A/DK/ST/5048/2001 (H3N8)); assay: as above
[31] = biological target: M2KTGEKS peptide conjugated with BSA (influenza A virus, A/Quail/Arkansas/16309-7/94 (H7N3NSA)); assay: peptide-BSA ELISA; legend: EC50 > 10^-8M: -
[32] = biological target: M2GHTGKS peptide conjugated with BSA (influenza A virus, A/chicken/HongKong/SF1/03 (H9N2)); assay: peptide-BSA ELISA; legend: EC50 > 10^-8M: -
[33] = biological target: M2LTGEKS-BSA conjugate (influenza A virus, A/Hong Kong/1074/99 (H9N2)); assay: peptide-BSA ELISA; legend: EC50 > 10^-8M: -
[34] = biological target: M2TDGEKS peptide conjugated with BSA (influenza A virus, A/chicken/Pennsylvania/13552-1/98 (H7N2NSB)); assay: peptide-BSA ELISA; legend: EC50 > 10^-8M: -
[35] = biological target: M2HTGEKS peptide conjugated with BSA (influenza A virus, A/chicken/California/1002a/00 (H6N2)); assay: peptide-BSA ELISA; legend: EC50 > 10^-8M: -
[36] = biological target: M2PHTGS peptide conjugated with BSA (influenza A virus, A/chicken/HongKong/YU427/03 (H9N2)); assay: peptide-BSA ELISA; legend: EC50 > 10^-8M: -
[37] = biological target: M2LTGS peptide conjugated with BSA (influenza A virus, A/Hong Kong/156/97 (H5N1)); assay: peptide-BSA ELISA; legend: EC50 > 10^-8M: -
[38] = biological target: M2LTKGS peptide conjugated with BSA (influenza A virus, A/Hong Kong/542/97 (H5N1)); assay: peptide-BSA ELISA; legend: EC50 > 10^-8M: -
[39] = biological target: M2TGEK-BSA conjugate (influenza A virus, A/Netherlands/33/03 (H7N7)); assay: peptide-BSA ELISA; legend: EC50 > 10^-8M: -

## mouse anti-M2 antibody 14C2
[1]
  ELISA(OD450): 1.97 OD450
[2]
  % of O.D. on M2 (SEQ ID NO:1): < 10%
[3]
  % of O.D. on M2 (SEQ ID NO:1): < 10%
[4]
  % of O.D. on M2 (SEQ ID NO:1): < 10%
[5]
  % of O.D. on M2 (SEQ ID NO:1): < 10%
[6]
  % of O.D. on M2 (SEQ ID NO:1): < 10%
[7]
  % of O.D. on M2 (SEQ ID NO:1): < 10%
[8]
  % of O.D. on M2 (SEQ ID NO:1): < 10%
[9]
  % of O.D. on M2 (SEQ ID NO:1): < 10%
[10]
  % of O.D. on M2 (SEQ ID NO:1): < 10%
[11]
  % of O.D. on M2 (SEQ ID NO:1): < 10%
[12]
  EC50: > 10 nM
[13]
  EC50: > 10 nM
[14]
  EC50: > 10 nM
[15]
  EC50: > 10 nM
[16]
  EC50: > 10 nM
[17]
  EC50: > 10 nM
[18]
  EC50: > 10 nM
[19]
  EC50: > 10 nM
[20]
  EC50: > 10 nM
[21]
  EC50: < 1 nM
[22]
  EC50: 1 to 10 nM
[23]
  EC50: < 1 nM
[24]
  EC50: < 1 nM
[25]
  EC50: < 1 nM
[26]
  EC50: 1 to 10 nM
[27]
  EC50: < 1 nM
[28]
  EC50: < 1 nM
[29]
  EC50: < 1 nM
[30]
  EC50: < 1 nM
[31]
  EC50: > 10 nM
[32]
  EC50: > 10 nM
[33]
  EC50: > 10 nM
[34]
  EC50: > 10 nM
[35]
  EC50: > 10 nM
[36]
  EC50: > 10 nM
[37]
  EC50: > 10 nM
[38]
  EC50: > 10 nM
[39]
  EC50: > 10 nM
